Where a chain is given by its changes, count along the chain named. Numbers in names are those of the source.
T1: His:Smurf protein (full length Drosophila Smurf) (Drosophila, UniProt Q9V853 1-1061)
T1 construct: Smurf E3 ligase, Drosophila, full length; Vector pET28a; also called Smurf in pET28a; source: E. coli, purified (Ni Sepharose)
T1 sequence (looked up): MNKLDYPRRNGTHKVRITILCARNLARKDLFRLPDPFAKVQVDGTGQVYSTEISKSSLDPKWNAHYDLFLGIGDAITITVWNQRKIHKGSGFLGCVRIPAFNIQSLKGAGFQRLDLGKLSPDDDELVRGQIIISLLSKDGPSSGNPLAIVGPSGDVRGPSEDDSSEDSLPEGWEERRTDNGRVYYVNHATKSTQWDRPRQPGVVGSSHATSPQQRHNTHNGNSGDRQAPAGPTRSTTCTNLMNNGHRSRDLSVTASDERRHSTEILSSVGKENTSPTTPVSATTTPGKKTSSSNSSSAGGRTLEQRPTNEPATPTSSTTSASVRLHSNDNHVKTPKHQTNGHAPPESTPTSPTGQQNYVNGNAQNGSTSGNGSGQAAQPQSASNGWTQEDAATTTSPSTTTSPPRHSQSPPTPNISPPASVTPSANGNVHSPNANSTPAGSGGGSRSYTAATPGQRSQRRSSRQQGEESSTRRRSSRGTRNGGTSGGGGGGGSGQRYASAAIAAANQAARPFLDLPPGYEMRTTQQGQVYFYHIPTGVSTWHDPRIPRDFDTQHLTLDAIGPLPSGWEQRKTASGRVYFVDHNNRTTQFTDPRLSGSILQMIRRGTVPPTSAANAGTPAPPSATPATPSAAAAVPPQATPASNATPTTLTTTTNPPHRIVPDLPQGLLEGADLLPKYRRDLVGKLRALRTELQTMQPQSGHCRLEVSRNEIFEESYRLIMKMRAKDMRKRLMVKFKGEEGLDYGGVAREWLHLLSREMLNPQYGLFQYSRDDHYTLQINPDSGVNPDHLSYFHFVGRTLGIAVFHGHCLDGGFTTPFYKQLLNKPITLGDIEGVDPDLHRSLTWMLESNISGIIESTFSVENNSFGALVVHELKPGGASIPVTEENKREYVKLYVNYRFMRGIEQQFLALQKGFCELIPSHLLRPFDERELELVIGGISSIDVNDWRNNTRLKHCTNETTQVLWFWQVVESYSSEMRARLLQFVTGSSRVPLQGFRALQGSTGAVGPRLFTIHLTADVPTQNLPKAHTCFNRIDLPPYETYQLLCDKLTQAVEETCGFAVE

B1: Ptc^CTD (C-terminal tail of Ptc) expressed in S2 cells (domain or fragment, Drosophila, UniProt P18502 1101-1286, looked up)
chain: ILLSMVGPEAELVPLEHPDRISTPSPLPVRSSKRSGKSYVVQGSRSSRGSCQKSHHHHHKDLNDPSLTTITEEPQSWKSSNSSIQMPNDWTYQPREQRPASYAAPPPAYHKAAAQQHHQHQGPPTTPPPPFPTAYPPELQSIVVQPEVTVETTHSDSNTTKVTATANIKVELAMPGRAVRSYNFTS
notes: Patched (Ptc), Drosophila, C-terminal tail; also called C-tail of Ptc; Ptc C-tail; source: S2 cells, transfected, in lysate
B2: GST:Flag:Ptc^CTD fusion protein (domain or fragment, Drosophila, UniProt P18502 1101-1286, looked up)
chain: B1 chain
notes: Patched (Ptc), Drosophila, C-terminal domain, residues 1101-1286; Vector pGEX4T-1; also called Flag tagged Ptc^CTD (1101-1286 a.a) in pGEX4T-1; source: E. coli, purified (glutathione agarose beads, batch)
B3: Ptc^CTD with the K1261R mutation, in S2 cells (domain or fragment, Drosophila, UniProt P18502 1101-1286, looked up)
chain: B1 chain with K161R
notes: Patched (Ptc), Drosophila, C-terminal domain with K1261R; source: S2 cells, transfected, in lysate

Tests used:
[1] = molecular target: the molecule itself; experiment: native gel or EMSA; lysates of S2 cells transfected for 48 h; native polyacrylamide gel and Western blot
[2] = molecular target: T1, His:Smurf protein (full length …); experiment: pull-down; GST fusion protein loaded glutathione beads incubated with 200 ng purified His:Smurf; 50 mM Tris-Cl pH 8.0, 200 mM NaCl, 1 mM EDTA, 1% NP-40, 2% BSA, 10 mM DTT, 1 mM PMSF; 4°C, 1 h; Western blot; conditions: both partners purified

| Binder | stoichiometry N [1] | binding result [2] |
| --- | --- | --- |
| B1 | 3 |  |
| B2 |  | binds |
| B3 | 3 |  |

From article PMC3841102, “Activation of Smurf E3 Ligase Promoted by Smoothened Regulates Hedgehog Signaling through Targeting Patched Turnover” (PLoS Biology, 2013)
